In patent publication US20210238260:

Target: Factor X, P00742
Sequence (P00742 whole entry, looked up): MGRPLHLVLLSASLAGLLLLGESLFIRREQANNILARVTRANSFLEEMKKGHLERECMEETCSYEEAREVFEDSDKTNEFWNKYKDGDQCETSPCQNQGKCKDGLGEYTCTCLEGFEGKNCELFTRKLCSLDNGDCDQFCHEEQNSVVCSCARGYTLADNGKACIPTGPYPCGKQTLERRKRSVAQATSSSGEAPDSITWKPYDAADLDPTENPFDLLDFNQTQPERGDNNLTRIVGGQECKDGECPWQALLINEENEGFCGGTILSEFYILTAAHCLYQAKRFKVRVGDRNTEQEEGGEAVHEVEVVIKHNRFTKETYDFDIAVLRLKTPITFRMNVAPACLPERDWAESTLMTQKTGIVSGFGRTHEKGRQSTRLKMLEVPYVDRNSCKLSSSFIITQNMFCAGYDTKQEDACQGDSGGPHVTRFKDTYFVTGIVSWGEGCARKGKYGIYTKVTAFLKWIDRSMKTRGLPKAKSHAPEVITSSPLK

Protein | KM (FX activation by FIXa in Xase complex with FVIIIa, PC/PS vesicles, Ca2+) [µM] | % of WT kcat/KM [%] | kcat/KM [M⁻¹ s⁻¹] | KM [µM]
FIXa Y155F/R318Y/R338E/T343R/R403E (protein) chain 1: YNSGKLEEFVQGNLERECMEEKCSFEEAREVFENTERTTEFWKQYVDGDQCESNPCLNGGSCKDDINSYECWCPFGFEGKNCELDVTCNIKNGRCEQFCKNSADNKVVCSCTEGYRLAENQKSCEPAVPFPCGRVSVSQTSKLTR chain 2: VVGGEDAKPGQFPWQVVLNGKVDAFCGGSIVNEKWIVTAAHCVETGVKITVVAGEHNIEETEHTEQKRNVIRIIPHHNYNAAINKYNHDIALLELDEPLVLNSYVTPICIADKEYTNIFLKFGSGYVSGWGRVFHKGYSALVLQYLRVPLVDRATCLESTKFRIYNNMFCAGFHEGGRDSCQGDSGGPHVTEVEGTSFLTGIISWGEECAMKGKYGIYTKVSEYVNWIKEKTKLT | 0.034 |  |  | 
FIXa-R318Y/R338E/R403E/E410N (mature FIX numbering) (protein) chain 1: YNSGKLEEFVQGNLERECMEEKCSFEEAREVFENTERTTEFWKQYVDGDQCESNPCLNGGSCKDDINSYECWCPFGFEGKNCELDVTCNIKNGRCEQFCKNSADNKVVCSCTEGYRLAENQKSCEPAVPFPCGRVSVSQTSKLTR chain 2: VVGGEDAKPGQFPWQVVLNGKVDAFCGGSIVNEKWIVTAAHCVETGVKITVVAGEHNIEETEHTEQKRNVIRIIPHHNYNAAINKYNHDIALLELDEPLVLNSYVTPICIADKEYTNIFLKFGSGYVSGWGRVFHKGYSALVLQYLRVPLVDRATCLESTKFTIYNNMFCAGFHEGGRDSCQGDSGGPHVTEVEGTSFLTGIISWGEECAMKGKYGIYTKVSEYVNWIKNKTKLT |  | 262 | 1.2e+08 | 
FIXa-K228N/R318Y/E410N (mature FIX numbering) (protein) chain 1: YNSGKLEEFVQGNLERECMEEKCSFEEAREVFENTERTTEFWKQYVDGDQCESNPCLNGGSCKDDINSYECWCPFGFEGKNCELDVTCNIKNGRCEQFCKNSADNKVVCSCTEGYRLAENQKSCEPAVPFPCGRVSVSQTSKLTR chain 2: VVGGEDAKPGQFPWQVVLNGKVDAFCGGSIVNEKWIVTAAHCVETGVNITVVAGEHNIEETEHTEQKRNVIRIIPHHNYNAAINKYNHDIALLELDEPLVLNSYVTPICIADKEYTNIFLKFGSGYVSGWGRVFHKGYSALVLQYLRVPLVDRATCLRSTKFTIYNNMFCAGFHEGGRDSCQGDSGGPHVTEVEGTSFLTGIISWGEECAMKGKYGIYTKVSRYVNWIKNKTKLT |  | 272 | 1.2e+08 | 
FIXa-A103N/N105S/R318Y/R338E/R403E/E410N (mature FIX numbering) (protein) chain 1: YNSGKLEEFVQGNLERECMEEKCSFEEAREVFENTERTTEFWKQYVDGDQCESNPCLNGGSCKDDINSYECWCPFGFEGKNCELDVTCNIKNGRCEQFCKNSNDSKVVCSCTEGYRLAENQKSCEPAVPFPCGRVSVSQTSKLTR chain 2: VVGGEDAKPGQFPWQVVLNGKVDAFCGGSIVNEKWIVTAAHCVETGVKITVVAGEHNIEETEHTEQKRNVIRIIPHHNYNAAINKYNHDIALLELDEPLVLNSYVTPICIADKEYTNIFLKFGSGYVSGWGRVFHKGYSALVLQYLRVPLVDRATCLESTKFTIYNNMFCAGFHEGGRDSCQGDSGGPHVTEVEGTSFLTGIISWGEECAMKGKYGIYTKVSEYVNWIKNKTKLT |  | 327 | 1.5e+08 | 
FIXa Y155F/R318Y/R338E/T343R/E410N (protein) chain 1: YNSGKLEEFVQGNLERECMEEKCSFEEAREVFENTERTTEFWKQYVDGDQCESNPCLNGGSCKDDINSYECWCPFGFEGKNCELDVTCNIKNGRCEQFCKNSADNKVVCSCTEGYRLAENQKSCEPAVPFPCGRVSVSQTSKLTR chain 2: VVGGEDAKPGQFPWQVVLNGKVDAFCGGSIVNEKWIVTAAHCVETGVKITVVAGEHNIEETEHTEQKRNVIRIIPHHNYNAAINKYNHDIALLELDEPLVLNSYVTPICIADKEYTNIFLKFGSGYVSGWGRVFHKGYSALVLQYLRVPLVDRATCLESTKFRIYNNMFCAGFHEGGRDSCQGDSGGPHVTEVEGTSFLTGIISWGEECAMKGKYGIYTKVSRYVNWIKNKTKLT | 0.0256 |  |  | 
FIXa-R318Y/R403E/E410N (mature FIX numbering) (protein) chain 1: YNSGKLEEFVQGNLERECMEEKCSFEEAREVFENTERTTEFWKQYVDGDQCESNPCLNGGSCKDDINSYECWCPFGFEGKNCELDVTCNIKNGRCEQFCKNSADNKVVCSCTEGYRLAENQKSCEPAVPFPCGRVSVSQTSKLTR chain 2: VVGGEDAKPGQFPWQVVLNGKVDAFCGGSIVNEKWIVTAAHCVETGVKITVVAGEHNIEETEHTEQKRNVIRIIPHHNYNAAINKYNHDIALLELDEPLVLNSYVTPICIADKEYTNIFLKFGSGYVSGWGRVFHKGYSALVLQYLRVPLVDRATCLRSTKFTIYNNMFCAGFHEGGRDSCQGDSGGPHVTEVEGTSFLTGIISWGEECAMKGKYGIYTKVSEYVNWIKNKTKLT |  | 59 | 2.7e+07 | 
FIXa-D104N/K106S/R318Y/R338E/E410N (mature FIX numbering) (protein) chain 1: YNSGKLEEFVQGNLERECMEEKCSFEEAREVFENTERTTEFWKQYVDGDQCESNPCLNGGSCKDDINSYECWCPFGFEGKNCELDVTCNIKNGRCEQFCKNSANNSVVCSCTEGYRLAENQKSCEPAVPFPCGRVSVSQTSKLTR chain 2: VVGGEDAKPGQFPWQVVLNGKVDAFCGGSIVNEKWIVTAAHCVETGVKITVVAGEHNIEETEHTEQKRNVIRIIPHHNYNAAINKYNHDIALLELDEPLVLNSYVTPICIADKEYTNIFLKFGSGYVSGWGRVFHKGYSALVLQYLRVPLVDRATCLESTKFTIYNNMFCAGFHEGGRDSCQGDSGGPHVTEVEGTSFLTGIISWGEECAMKGKYGIYTKVSRYVNWIKNKTKLT |  | 581 | 2.6e+08 | 
FIXa-Y155F/R318Y/R338E/E410N (mature FIX numbering) (protein) chain 1: YNSGKLEEFVQGNLERECMEEKCSFEEAREVFENTERTTEFWKQYVDGDQCESNPCLNGGSCKDDINSYECWCPFGFEGKNCELDVTCNIKNGRCEQFCKNSADNKVVCSCTEGYRLAENQKSCEPAVPFPCGRVSVSQTSKLTR chain 2: VVGGEDAKPGQFPWQVVLNGKVDAFCGGSIVNEKWIVTAAHCVETGVKITVVAGEHNIEETEHTEQKRNVIRIIPHHNYNAAINKYNHDIALLELDEPLVLNSYVTPICIADKEYTNIFLKFGSGYVSGWGRVFHKGYSALVLQYLRVPLVDRATCLESTKFTIYNNMFCAGFHEGGRDSCQGDSGGPHVTEVEGTSFLTGIISWGEECAMKGKYGIYTKVSRYVNWIKNKTKLT |  | 835 | 3.7e+08 | 
FIXa-K228N/R338E/R403E (mature FIX numbering) (protein) chain 1: YNSGKLEEFVQGNLERECMEEKCSFEEAREVFENTERTTEFWKQYVDGDQCESNPCLNGGSCKDDINSYECWCPFGFEGKNCELDVTCNIKNGRCEQFCKNSADNKVVCSCTEGYRLAENQKSCEPAVPFPCGRVSVSQTSKLTR chain 2: VVGGEDAKPGQFPWQVVLNGKVDAFCGGSIVNEKWIVTAAHCVETGVNITVVAGEHNIEETEHTEQKRNVIRIIPHHNYNAAINKYNHDIALLELDEPLVLNSYVTPICIADKEYTNIFLKFGSGYVSGWGRVFHKGRSALVLQYLRVPLVDRATCLESTKFTIYNNMFCAGFHEGGRDSCQGDSGGPHVTEVEGTSFLTGIISWGEECAMKGKYGIYTKVSEYVNWIKEKTKLT |  | 108 | 4.8e+07 | 
FIXa R338E/T343R/R403E/E410N (protein) chain 1: YNSGKLEEFVQGNLERECMEEKCSFEEAREVFENTERTTEFWKQYVDGDQCESNPCLNGGSCKDDINSYECWCPFGFEGKNCELDVTCNIKNGRCEQFCKNSADNKVVCSCTEGYRLAENQKSCEPAVPFPCGRVSVSQTSKLTR chain 2: VVGGEDAKPGQFPWQVVLNGKVDAFCGGSIVNEKWIVTAAHCVETGVKITVVAGEHNIEETEHTEQKRNVIRIIPHHNYNAAINKYNHDIALLELDEPLVLNSYVTPICIADKEYTNIFLKFGSGYVSGWGRVFHKGRSALVLQYLRVPLVDRATCLESTKFRIYNNMFCAGFHEGGRDSCQGDSGGPHVTEVEGTSFLTGIISWGEECAMKGKYGIYTKVSEYVNWIKNKTKLT | 0.0347 |  |  | 
FIXa R318Y/R338E/T343R/E410N (protein) chain 1: YNSGKLEEFVQGNLERECMEEKCSFEEAREVFENTERTTEFWKQYVDGDQCESNPCLNGGSCKDDINSYECWCPFGFEGKNCELDVTCNIKNGRCEQFCKNSADNKVVCSCTEGYRLAENQKSCEPAVPFPCGRVSVSQTSKLTR chain 2: VVGGEDAKPGQFPWQVVLNGKVDAFCGGSIVNEKWIVTAAHCVETGVKITVVAGEHNIEETEHTEQKRNVIRIIPHHNYNAAINKYNHDIALLELDEPLVLNSYVTPICIADKEYTNIFLKFGSGYVSGWGRVFHKGYSALVLQYLRVPLVDRATCLESTKFRIYNNMFCAGFHEGGRDSCQGDSGGPHVTEVEGTSFLTGIISWGEECAMKGKYGIYTKVSRYVNWIKNKTKLT | 0.0164 |  |  | 
FIXa Y155F/R318Y/T343R/R403E/E410N (protein) chain 1: YNSGKLEEFVQGNLERECMEEKCSFEEAREVFENTERTTEFWKQYVDGDQCESNPCLNGGSCKDDINSYECWCPFGFEGKNCELDVTCNIKNGRCEQFCKNSADNKVVCSCTEGYRLAENQKSCEPAVPFPCGRVSVSQTSKLTR chain 2: VVGGEDAKPGQFPWQVVLNGKVDAFCGGSIVNEKWIVTAAHCVETGVKITVVAGEHNIEETEHTEQKRNVIRIIPHHNYNAAINKYNHDIALLELDEPLVLNSYVTPICIADKEYTNIFLKFGSGYVSGWGRVFHKGYSALVLQYLRVPLVDRATCLRSTKFRIYNNMFCAGFHEGGRDSCQGDSGGPHVTEVEGTSFLTGIISWGEECAMKGKYGIYTKVSEYVNWIKNKTKLT | 0.034 |  |  | 
FIXa-R338E/T343R/E410N (protein) chain 1: YNSGKLEEFVQGNLERECMEEKCSFEEAREVFENTERTTEFWKQYVDGDQCESNPCLNGGSCKDDINSYECWCPFGFEGKNCELDVTCNIKNGRCEQFCKNSADNKVVCSCTEGYRLAENQKSCEPAVPFPCGRVSVSQTSKLTR chain 2: VVGGEDAKPGQFPWQVVLNGKVDAFCGGSIVNEKWIVTAAHCVETGVKITVVAGEHNIEETEHTEQKRNVIRIIPHHNYNAAINKYNHDIALLELDEPLVLNSYVTPICIADKEYTNIFLKFGSGYVSGWGRVFHKGRSALVLQYLRVPLVDRATCLESTKFRIYNNMFCAGFHEGGRDSCQGDSGGPHVTEVEGTSFLTGIISWGEECAMKGKYGIYTKVSRYVNWIKNKTKLT |  |  |  | 0.0355
FIXa-R318Y/R338E/E410N (mature FIX numbering) (protein) chain 1: YNSGKLEEFVQGNLERECMEEKCSFEEAREVFENTERTTEFWKQYVDGDQCESNPCLNGGSCKDDINSYECWCPFGFEGKNCELDVTCNIKNGRCEQFCKNSADNKVVCSCTEGYRLAENQKSCEPAVPFPCGRVSVSQTSKLTR chain 2: VVGGEDAKPGQFPWQVVLNGKVDAFCGGSIVNEKWIVTAAHCVETGVKITVVAGEHNIEETEHTEQKRNVIRIIPHHNYNAAINKYNHDIALLELDEPLVLNSYVTPICIADKEYTNIFLKFGSGYVSGWGRVFHKGYSALVLQYLRVPLVDRATCLESTKFTIYNNMFCAGFHEGGRDSCQGDSGGPHVTEVEGTSFLTGIISWGEECAMKGKYGIYTKVSRYVNWIKNKTKLT |  | 770 | 3.4e+08 | 
